Test results taken from patent publication US20110166329A1.

Assays:
[1] = molecular target: human serum amyloid P component (SAP) (human) (UniProt P02743); assay: IRMA; SAP non-covalently immobilised; antibody at 0.001 µg/ml; radiolabelled sheep anti-mouse IgG2a
[2] = molecular target: human serum amyloid P component (SAP) (human) (UniProt P02743); assay: IRMA; SAP non-covalently immobilised; antibody at 1 µg/ml; radiolabelled sheep polyvalent anti-mouse IgG
[3] = molecular target: human serum amyloid P component (SAP) (human) (UniProt P02743); assay: IRMA; SAP alone covalently immobilised; in calcium; radiolabelled sheep anti-mouse IgG; mean n=3
[4] = molecular target: human serum amyloid P component (SAP) (human) (UniProt P02743); assay: IRMA; SAP non-covalently immobilised; antibody at 0.01 µg/ml; radiolabelled sheep anti-mouse IgG2a
[5] = molecular target: human serum amyloid P component (SAP) (human) (UniProt P02743); assay: IRMA; SAP non-covalently immobilised; antibody at 0.1 µg/ml; radiolabelled sheep anti-mouse IgG2a
[6] = molecular target: human serum amyloid P component (SAP) (human) (UniProt P02743); assay: Biacore; isolated pure SAP alone immobilised on the chip
[7] = molecular target: human serum amyloid P component (SAP) (human) (UniProt P02743); assay: IRMA; SAP alone covalently immobilised; in EDTA; radiolabelled sheep anti-mouse IgG; mean n=3
[8] = molecular target: human serum amyloid P component (SAP) (human) (UniProt P02743); assay: IRMA; SAP alone captured on immobilised sheep polyclonal anti-human SAP; in calcium; radiolabelled sheep anti-mouse IgG; mean n=3
[9] = molecular target: human serum amyloid P component (SAP) (human) (UniProt P02743); assay: IRMA; SAP non-covalently immobilised; antibody at 100 µg/ml; radiolabelled sheep anti-mouse IgG2a
[10] = molecular target: human SAP complexed with CPHPC and covalently cross linked with BS3 (human) (UniProt P02743); assay: IRMA; SAP-CPHPC complex captured on immobilised sheep polyclonal anti-human SAP; in calcium; radiolabelled sheep anti-mouse IgG; mean n=3
human SAP complexed with CPHPC and covalently cross linked with BS3 (human), sequence (P02743 20-223, one chain of several): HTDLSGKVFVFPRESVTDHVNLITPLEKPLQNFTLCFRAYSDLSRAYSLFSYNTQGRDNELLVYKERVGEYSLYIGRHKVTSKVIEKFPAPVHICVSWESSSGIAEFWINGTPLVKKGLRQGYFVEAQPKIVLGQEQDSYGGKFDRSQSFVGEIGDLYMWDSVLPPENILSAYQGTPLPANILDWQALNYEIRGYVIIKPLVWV

[11] = molecular target: human serum amyloid P component (SAP) (human) (UniProt P02743); assay: IRMA; SAP non-covalently immobilised; antibody at 10 µg/ml; radiolabelled sheep anti-mouse IgG2a
[12] = molecular target: human SAP complexed with CPHPC and covalently cross linked with BS3 (human) (UniProt P02743); assay: IRMA; SAP-CPHPC complex covalently immobilised; in EDTA; radiolabelled sheep anti-mouse IgG; mean n=3
[13] = molecular target: human serum amyloid P component (SAP) (human) (UniProt P02743); assay: IRMA; SAP non-covalently immobilised; antibody at 100 µg/ml; radiolabelled sheep polyvalent anti-mouse IgG
[14] = molecular target: human serum amyloid P component (SAP) (human) (UniProt P02743); assay: IRMA; SAP non-covalently immobilised; antibody at 10 µg/ml; radiolabelled sheep polyvalent anti-mouse IgG
[15] = molecular target: human serum amyloid P component (SAP) (human) (UniProt P02743); assay: IRMA; SAP non-covalently immobilised; antibody at 0.001 µg/ml; radiolabelled sheep polyvalent anti-mouse IgG
[16] = molecular target: human serum amyloid P component (SAP) (human) (UniProt P02743); assay: IRMA; SAP non-covalently immobilised; antibody at 1 µg/ml; radiolabelled sheep anti-mouse IgG2a
[17] = molecular target: human serum amyloid P component (SAP) (human) (UniProt P02743); assay: IRMA; SAP non-covalently immobilised; antibody at 0.01 µg/ml; radiolabelled sheep polyvalent anti-mouse IgG
[18] = molecular target: human SAP complexed with CPHPC and covalently cross linked with BS3 (human) (UniProt P02743); assay: IRMA; SAP-CPHPC complex covalently immobilised; in calcium; radiolabelled sheep anti-mouse IgG; mean n=3
[19] = molecular target: human serum amyloid P component (SAP) (human) (UniProt P02743); assay: IRMA; SAP non-covalently immobilised; antibody at 0.1 µg/ml; radiolabelled sheep polyvalent anti-mouse IgG

human serum amyloid P component (SAP) (human), sequence (P02743 20-223): as the sequence (P02743 20-223, one chain of several) above

Activity bound (d.p.m.) [1]: 94 d.p.m.
Activity bound (d.p.m.) [2]: 12100 d.p.m.
Activity bound (d.p.m.) [3]: 5580 d.p.m.
Activity bound (d.p.m.) [4]: 222 d.p.m.
Activity bound (d.p.m.) [5]: 589 d.p.m.
koff [6]: 6e-05 s⁻¹
kon [6]: 20000 M⁻¹ s⁻¹
Activity bound (d.p.m.) [7]: 4050 d.p.m.
Activity bound (d.p.m.) [8]: 9310 d.p.m.
Activity bound (d.p.m.) [9]: 2200 d.p.m.
Activity bound (d.p.m.) [10]: 7120 d.p.m.
Activity bound (d.p.m.) [11]: 1980 d.p.m.
Activity bound (d.p.m.) [12]: 5140 d.p.m.
Activity bound (d.p.m.) [13]: 16200 d.p.m.
Activity bound (d.p.m.) [14]: 15400 d.p.m.
Activity bound (d.p.m.) [15]: 195 d.p.m.
Activity bound (d.p.m.) [16]: 1650 d.p.m.
Activity bound (d.p.m.) [17]: 902 d.p.m.
Activity bound (d.p.m.) [18]: 6160 d.p.m.
Activity bound (d.p.m.) [19]: 4560 d.p.m.
Substance: SAP-5 (antibody)
